# In patent US20250019450A1 (DIAGONAL THERAPEUTICS, published 2025):
# T1: human IL-12Rβ2, Acro (BLI analyte) (human, UniProt Q99665 24-622, limits assumed)
# T1 sequence (looked up): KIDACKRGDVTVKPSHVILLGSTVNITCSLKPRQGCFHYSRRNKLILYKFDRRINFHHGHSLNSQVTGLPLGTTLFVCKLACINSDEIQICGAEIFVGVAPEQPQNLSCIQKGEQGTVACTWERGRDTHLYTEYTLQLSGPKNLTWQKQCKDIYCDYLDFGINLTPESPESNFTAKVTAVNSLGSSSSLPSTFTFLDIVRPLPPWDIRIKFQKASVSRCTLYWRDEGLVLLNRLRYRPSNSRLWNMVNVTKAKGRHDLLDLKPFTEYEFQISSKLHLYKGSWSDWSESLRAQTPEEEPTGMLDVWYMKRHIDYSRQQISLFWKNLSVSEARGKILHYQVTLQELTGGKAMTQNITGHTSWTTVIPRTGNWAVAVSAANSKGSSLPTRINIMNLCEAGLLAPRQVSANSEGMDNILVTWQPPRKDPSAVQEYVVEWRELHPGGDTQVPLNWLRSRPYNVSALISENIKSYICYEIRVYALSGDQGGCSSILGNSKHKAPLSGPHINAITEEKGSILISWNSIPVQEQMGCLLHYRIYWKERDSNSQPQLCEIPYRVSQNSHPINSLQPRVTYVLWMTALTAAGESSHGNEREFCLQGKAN
# Assays:
# [1] = target: T1, human IL-12Rβ2, Acro (BLI analyte); assay: BLI (Octet), antibody on AHC tip
# [2] = target: human IL-12Rβ1, Acro (BLI analyte) (human, UniProt P42701 24-545); assay: BLI (Octet), antibody on AHC tip
# [3] = target: human IL-12 receptor (IL-12Rβ1 and IL-12Rβ2) on HEK-Blue IL-12 cells (human, UniProt P42701 24-662; Q99665 24-862); assay: cell-based or functional assay
Kd [1],Kd [2],EC50 [3],Max Absorbance [3],Binder
0.723 nM,1.7 nM,5.2e-09 M (implied),1.19,"DGL569 (bispecific antibody, V domains shown, 233B1 x 19B2) V domain 1: QVQLVESGGGLVQAGGSLRLSCAASRSISSFNEMAWYRQAPGEQRELVATIVSTVGFTNYADSVKGRFTISRDNAKNTVYLQMNSLKAEDTAVYYCNARRISTDYWGQGTQVTVEP V domain 2: QVQLVESGGGLVQPGGSLRLSCAASGFTFSNYAMSWVRQAPGKGLEWVSAINSDGTSTSYADSVKGQFTISRDNAKNTLYLQMNSLKPEDTAVYYCTKWEGDTDSDYKFKDYWGQGTQVTVEP"
2.41 nM,1.48 nM,1.2e-08 M (implied),1.05,"DGL572 (bispecific antibody, V domains shown, 233B1 x 93B2) V domain 1: QVQLVESGGGLVQAGGSLRLSCAASRSISSFNEMAWYRQAPGEQRELVATIVSTVGFTNYADSVKGRFTISRDNAKNTVYLQMNSLKAEDTAVYYCNARRISTDYWGQGTQVTVEP V domain 2: QVQLVESGGGLVQPGGSLRLSCAASGFTFEPYDMSWFRQAPGKGPEWVSAIDKGGGAGATYYADSVKGRFTISRDNAKKTLYLQMKSLKPEDTAVYYCAITAGPYSDSTPRVAYRGEGTQVTVEP"
0.772 nM,7.17 nM,3.3e-10 M (implied),0.93,"DGL481 (bispecific antibody, V domains shown, 67B1 x 19B2) V domain 1: QVQLVESGGGLVQAGGSLRLSCAASARIFNSYAVAWFRQTPGKEREFVASISWSGGSTNYADSVKGRFTISRDNAKNTVFLQMNSLKPADTAVYYCAADRNYYPSVLGKYTYWGQGTQVTVEP V domain 2: QVQLVESGGGLVQPGGSLRLSCAASGFTFSNYAMSWVRQAPGKGLEWVSAINSDGTSTSYADSVKGQFTISRDNAKNTLYLQMNSLKPEDTAVYYCTKWEGDTDSDYKFKDYWGQGTQVTVEP"
2.34 nM,1.78 nM,> 100 nM,0.91,"DGL568 (bispecific antibody, V domains shown, 233B1 x 13B2) V domain 1: QVQLVESGGGLVQAGGSLRLSCAASRSISSFNEMAWYRQAPGEQRELVATIVSTVGFTNYADSVKGRFTISRDNAKNTVYLQMNSLKAEDTAVYYCNARRISTDYWGQGTQVTVEP V domain 2: QVQLVESGGGLVRPGGSLRLSCAASGFTFSSNGMHWFRQAPGKGLEWVSSIGSGGTSIYYADSVKGRFTISRDNAKNTLYLQMNSLKSDDTAVYYCSKEVTGATRGQGTQVTVEP"
0.77 nM,10.7 nM,6.4e-10 M (implied),0.96,"DGL495 (bispecific antibody, V domains shown) V domain 1: EVQLVESGGGLVQAGGSLRLSCAASGLTFRNYAMAWFRQAPGKEREFVAGITWGGGLTHYVDSVKGRFTISRDNGKNTVYLQMNSLKSEDTAVYYCAGKTQGSTWYHLTPDGYDYWGQGTQVTVEP V domain 2: QVQLVESGGGLVQPGGSLRLSCAASGFTFSNYAMSWVRQAPGKGLEWVSAINSDGTSTSYADSVKGQFTISRDNAKNTLYLQMNSLKPEDTAVYYCTKWEGDTDSDYKFKDYWGQGTQVTVEP"
7.66 nM,1.38 nM,> 100 nM,1.44,"DGL570 (bispecific antibody, V domains shown, 233B1 x 64B2) V domain 1: QVQLVESGGGLVQAGGSLRLSCAASRSISSFNEMAWYRQAPGEQRELVATIVSTVGFTNYADSVKGRFTISRDNAKNTVYLQMNSLKAEDTAVYYCNARRISTDYWGQGTQVTVEP V domain 2: QVQLVESGGGLVQPGGSLRLSCAASGFTFSSKAMHWFRQAPGKGLEWVSSINSGGAITYYKDSVKGRFTVSRDNAKNILYLEMNSLKPEDTALYYCATDTDGRTRGQGTQVTVEP"
0.682 nM,1.63 nM,6.6e-11 M (implied),0.79,"DGL601 (bispecific antibody, human IgG1, lambda, 85801_04M04A x 19B2) heavy 1: not shown heavy 2: QVQLVESGGGLVQPGGSLRLSCAASGFTFSNYAMSWVRQAPGKGLEWVSAINSDGTSTSYADSVKGQFTISRDNAKNTLYLQMNSLKPEDTAVYYCTKWEGDTDSDYKFKDYWGQGTQVTVEPKSSDKTHTCPPCPAPEAAGAPSVFLFPPKPKDTLMISRTPEVTCVVVDVSHEDPEVKFNWYVDGVEVHNAKTKPREEQYNSTYRVVSVLTVLHQDWLNGKEYKCKVSNKALPAPIEKTISKAKGQPREPQVCTLPPSRDELTKNQVSLSCAVKGFYPSDIAVEWESNGQPENNYKTTPPVLDSDGSFFLVSKLTVDKSRWQQGNVFSCSVMHEALHNRFTQKSLSLSPG light: SSELTQDPAVSVALGQTVRITCQGDSLSSYYAGWYQQKPGQAPVLVIYGKNNRPSGIPDRFSGSSSEDTASLTITGAQAEDEADYYCNSRDSSDNHLVFGGGTKLTVLGQPKAAPSVTLFPPSSEELQANKATLVCLISDFYPGAVTVAWKADSSPVKAGVETTTPSKQSNNKYAASSYLSLTPEQWKSHRSYSCQVTHEGSTVEKTVAPTECS"
0.726 nM,,2.6e-10 M (implied),1.49,"DGL424 (bispecific antibody, human IgG1, lambda, 54B1 x 85802_10K12A) heavy 1: not shown heavy 2: QVTLRESGPALVKPTQTLTLTCTFSGFSLSTSGMCVSWIRQPPGKALEWLALIYWDDDKYYSTSLKTRLTISKDTSKNQVVLTMTNMDPVDTATYYCARMRRGIEAFDIWGQGTMVTVFSASTKGPSVFPLAPSSKSTSGGTAALGCLVKDYFPEPVTVSWNSGALTSGVHTFPAVLQSSGLYSLSSVVTVPSSSLGTQTYICNVNHKPSNTKVDKKVEPKSCDKTHTCPPCPAPEAAGAPSVFLFPPKPKDTLMISRTPEVTCVVVDVSHEDPEVKFNWYVDGVEVHNAKTKPREEQYNSTYRVVSVLTVLHQDWLNGKEYKCKVSNKALPAPIEKTISKAKGQPREPQVCTLPPSRDELTKNQVSLSCAVKGFYPSDIAVEWESNGQPENNYKTTPPVLDSDGSFFLVSKLTVDKSRWQQGNVFSCSVMHEALHNRFTQKSLSLSPG light: QSVLTQPPSVSGAPGQRVTISCTGSSSNIGAGYDVHWYQQLPGTAPKLLIFGYSNRPSGVPVRFSGSKSGTSASLAITGLLAEDEADFYCQSFDISLTGWVFGGGTKLTVLGQPKAAPSVTLFPPSSEELQANKATLVCLISDFYPGAVTVAWKADSSPVKAGVETTTPSKQSNNKYAASSYLSLTPEQWKSHRSYSCQVTHEGSTVEKTVAPTECS"
3.41 nM,27.3 nM,6.5e-11 M (implied),1.05,"DGL516 (bispecific antibody, V domains shown, 97B1 x 93B2) V domain 1: QVQLVESGGGLAQAGGSLRLSCAASGRTFSNDDMAWFRQAPGKEREFVAHIDRNAASTNYADSVKGRFTISRDNAKNTVYLQMTRLKPEDTAVYYCAADPDHFGTTWYQQYTYWGPGTQVTVEP V domain 2: QVQLVESGGGLVQPGGSLRLSCAASGFTFEPYDMSWFRQAPGKGPEWVSAIDKGGGAGATYYADSVKGRFTISRDNAKKTLYLQMKSLKPEDTAVYYCAITAGPYSDSTPRVAYRGEGTQVTVEP"
5.48 nM,9.86 nM,3.5e-11 M (implied),0.85,"DGL514 (bispecific antibody, V domains shown, 97B1 x 67B2) V domain 1: QVQLVESGGGLAQAGGSLRLSCAASGRTFSNDDMAWFRQAPGKEREFVAHIDRNAASTNYADSVKGRFTISRDNAKNTVYLQMTRLKPEDTAVYYCAADPDHFGTTWYQQYTYWGPGTQVTVEP V domain 2: QVQLVESGGGLVQPGGSLRLSCAASGFTFSNYAMSWIRQGPERGFEWVSRINSGGGTTSYADSVKGRFTISRDNAKNTLYLQMNSLKPEDTAVYYCAKHSHPDYSSNYYRPGQGTQVTVEP"
6.03 nM,2.68 nM,8.8e-09 M (implied),0.92,"DGL606 (bispecific antibody, V domains shown, 238B1 x 219B2) V domain 1: QLQLVESGGGLVQPGGSLRLSCAASGFTFSSYGMSWVRQAPGKGLEWVSYISAGGGTTTYVDFVKGRFTISRDNAKNMLYLQMNSLKPEDTAVYYCVHAADGSRGQGTQVTVEP V domain 2: QVQLEESGGGLVQAGGSLRLSCAASGRTFSSYVVGWFRQAPGKEREFVGRISWSGARTYYADSVEGRFTISRDNAKNTVYLQMNSLKPEDTAVYYCAADLKWEVLLSEHYEYWGQGTQVTVEP"
